The text below walks through data of patent US20240024480A1 (MIE UNIVERSITY, published 2024).

This experiment deals with HLA-A24 PRAMEp301-309 pMHC complex (human). The experiment is described as follows: SPR, Biacore X100, Biotin CAPture Kit; A24 PRAMEp301-309 immobilised as ligand, scFv-pp at 31.25-500 nM, global fit.

B1: #98 scFvCL-pp (scFv)
chain: QVQLVQSGAEVKKPGSSVKVSCKASGGTFSSYAISWVRQAPGQGLEWMGGIIPIFGTANYAQKFQGRVTITADESTGTAYMELSSLRSEDTAVYYCARHHSNYYYYGMDVWGQGTTVTVSRSYELTQPLSVSVALGQTARITCGGNNIGSKNVHWYQQKPGQAPVLVIYRDSNRPSGIPERFSGSNSGNTATLTISRAQAGDEADYYCQVWDSSHVFGTGTKVTVL
For B1, the dissociation constant (Kd) was determined as 5.3 nM.
